Experimental data from US6428967 (University of Texas, dated 2002).

T1: Disabled-1 (Dab1), two-hybrid prey in pB42AD (UniProt P97318-2 1-555)
T1 sequence (looked up): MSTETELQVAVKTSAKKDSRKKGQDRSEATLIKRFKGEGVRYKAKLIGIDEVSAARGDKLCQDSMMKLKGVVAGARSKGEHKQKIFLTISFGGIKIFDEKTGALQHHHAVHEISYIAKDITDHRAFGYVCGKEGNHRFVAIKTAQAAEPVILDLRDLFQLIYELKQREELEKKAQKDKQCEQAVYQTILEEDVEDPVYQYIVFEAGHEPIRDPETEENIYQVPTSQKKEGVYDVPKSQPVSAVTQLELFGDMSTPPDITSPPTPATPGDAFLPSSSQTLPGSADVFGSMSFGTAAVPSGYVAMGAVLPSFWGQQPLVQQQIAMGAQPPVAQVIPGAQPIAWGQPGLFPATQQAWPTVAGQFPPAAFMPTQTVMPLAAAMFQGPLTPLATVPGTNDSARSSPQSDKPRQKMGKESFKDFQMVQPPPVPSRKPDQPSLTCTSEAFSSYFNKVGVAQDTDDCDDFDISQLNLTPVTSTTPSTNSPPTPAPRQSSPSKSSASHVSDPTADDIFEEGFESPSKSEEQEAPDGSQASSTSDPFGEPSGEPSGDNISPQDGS

T2: JIP-1 (mouse, UniProt Q9WVI9 1-707)
T2 construct: Yeast two-hybrid prey clone; also called meg11
T2 sequence: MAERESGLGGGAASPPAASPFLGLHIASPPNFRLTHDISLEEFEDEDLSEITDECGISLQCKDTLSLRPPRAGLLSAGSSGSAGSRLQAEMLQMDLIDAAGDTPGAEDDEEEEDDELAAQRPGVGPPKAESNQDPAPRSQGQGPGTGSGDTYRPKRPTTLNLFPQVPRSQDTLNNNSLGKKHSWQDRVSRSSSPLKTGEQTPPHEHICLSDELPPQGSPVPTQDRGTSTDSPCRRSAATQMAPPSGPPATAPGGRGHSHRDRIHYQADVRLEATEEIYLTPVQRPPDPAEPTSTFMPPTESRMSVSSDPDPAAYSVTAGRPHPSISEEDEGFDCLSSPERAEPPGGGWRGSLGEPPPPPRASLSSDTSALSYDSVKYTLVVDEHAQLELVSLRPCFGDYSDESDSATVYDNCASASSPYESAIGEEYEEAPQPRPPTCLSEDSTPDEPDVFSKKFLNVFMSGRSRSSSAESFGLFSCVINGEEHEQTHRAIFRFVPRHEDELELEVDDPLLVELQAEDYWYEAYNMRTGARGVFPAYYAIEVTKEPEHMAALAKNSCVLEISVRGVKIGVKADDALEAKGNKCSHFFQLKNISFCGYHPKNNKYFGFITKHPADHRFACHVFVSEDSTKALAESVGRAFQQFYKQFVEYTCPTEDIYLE


How the values were obtained:
PSD-95 = target: T3, PSD-95 (mouse, UniProt Q62108 1-724); experiment: yeast two-hybrid, LexA tail bait against prey
T3 construct: Yeast two-hybrid prey clone; also called postsynaptic density-95; postsynaptic density protein PSD-95
T3 sequence (Q62108 whole entry): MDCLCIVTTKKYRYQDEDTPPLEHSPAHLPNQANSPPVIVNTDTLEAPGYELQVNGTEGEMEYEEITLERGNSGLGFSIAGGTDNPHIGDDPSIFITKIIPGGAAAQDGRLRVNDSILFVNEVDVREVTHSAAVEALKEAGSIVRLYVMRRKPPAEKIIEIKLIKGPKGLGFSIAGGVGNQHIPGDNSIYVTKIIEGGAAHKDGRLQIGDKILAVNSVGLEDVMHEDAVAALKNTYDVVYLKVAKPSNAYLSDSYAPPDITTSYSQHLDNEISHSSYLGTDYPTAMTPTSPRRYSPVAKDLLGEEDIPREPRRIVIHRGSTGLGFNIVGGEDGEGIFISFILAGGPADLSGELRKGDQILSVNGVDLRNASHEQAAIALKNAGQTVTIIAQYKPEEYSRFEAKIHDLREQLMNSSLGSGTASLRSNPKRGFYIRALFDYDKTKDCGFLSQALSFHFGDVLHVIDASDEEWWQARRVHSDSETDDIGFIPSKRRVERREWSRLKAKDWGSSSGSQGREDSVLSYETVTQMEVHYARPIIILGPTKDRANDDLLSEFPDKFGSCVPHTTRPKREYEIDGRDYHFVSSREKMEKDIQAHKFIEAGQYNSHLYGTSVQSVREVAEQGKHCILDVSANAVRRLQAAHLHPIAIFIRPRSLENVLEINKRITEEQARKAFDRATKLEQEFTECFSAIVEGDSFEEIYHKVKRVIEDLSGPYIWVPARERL
Method: (§1) PCR products were subcloned into the EcoRI and NcoI sites of pLexA for the Megalin and VLDL Receptor, and into EcoRI and BarnHI sites for the other receptors. […] All constructs were sequenced after cloning, and all bait vectors were tested for self-activation. Bait and prey vectors were cotransfected into yeast cells (leucine auxotrophic strain EGY48) using the LiAc method as described in the […] manual (CLONTECH). The two-hybrid assay used two reporters (LEU2 and lacZ) under the control of LexA operators. Cells were spread on selective plates (His-;Leu-;Trp-) and grown for 3 days. Single clones were grown on selective plates in patches and harvested after 2–3 days. To recover DNA from yeast, cells were resuspended in 50 μl STES (0.5M NaCl, 0.2M Tris-HCl pH 7.6, 0.01M EDTA, 1% SDS). Glass beads were added and the cells vortexed vigorously. After addition of 20 μl H2O and 60 μl phenol/chloroform cells were vortexed for 1 more minute and centrifuged (14,000×g, 5 min). The aqueous phase was collected and the DNA was precipitated with EtOH. DNA from positive clones was retransformed into DH5α and checked by DNA sequencing. Yeast mating was performed after transformation of LexA plasmids into the yeast strain YM4271 following the instructions in the […] manual (CLONTECH).
(§2) The ApoER2 tail was tested with (+) and without (−) its alternatively spliced insert. For Megalin and for LRP the complete tails and parts thereof containing a single NPxY motif were tested separately.

[1] = target: T1, Disabled-1 (Dab1), two-hybrid prey in …; experiment: yeast two-hybrid, LexA tail bait against B42AD-Dab1
Method: as §1, with “All LDL receptor family cytoplasmic tail LexA fusion proteins were constructed using the pLexA vector ([…] system, CLONTECH). […] PCR” for “PCR”
as §2

JIP-1 = target: T2, JIP-1; experiment: yeast two-hybrid, LexA tail bait against prey
Method: as §1, §2

| Binder | binding result (PSD-95) | binding result [1] | binding result (JIP-1) |
| --- | --- | --- | --- |
| ApoER2 cytoplasmic tail with its alternatively spliced insert, LexA fusion protein (ApoER2+ mouse) (receptor, not shown: large carriers, LexA fusion bait of the two-hybrid assay; also called the ApoER2 tail containing the alternatively spliced insert) not shown | binds |  |  |
| VQGAKGFQHQRMTNGAMNVEIGNPTYKMYEGGEPDDVG (receptor, not shown: large carriers, LexA fusion bait of the two-hybrid assay) [LRPA, part of the LRP cytoplasmic tail, LexA fusion protein (LRPA human)] |  | no binding |  |
| MegC, part of the Megalin cytoplasmic tail, LexA fusion protein (MegC human) (receptor, not shown: large carriers, LexA fusion bait of the two-hybrid assay) GSPINPSEIVPETNPTSPAADGTQVTKWNLFKRKSKQTTNFENPIYAQMENEQKESVAATPPPSPSLPAKPKPPSRRDPTPTYSATEDTFKDTANLVKEDSEV |  | no binding |  |
| MegB, part of the Megalin cytoplasmic tail, LexA fusion protein (MegB human) (receptor, not shown: small tags and cut ends, WARNING: the listing's entry 129 (76 residues) begins like the LRP entries 130 and 132, while entry 131 (68 residues) is a stretch of the Megalin entry 127; entries 129 and 131 look exchanged, so MegB is probably entry 131) SARDSAVKVVQPIQVTVSENVDNKNYGSPINPSEIVPETNPTSPAADGTQVTKWNLFKRKSKQTTNFE |  | no binding |  |
| ApoER2 cytoplasmic tail without its alternatively spliced insert, LexA fusion protein (ApoER2- mouse) (receptor, not shown: large carriers, LexA fusion bait of the two-hybrid assay; also called the tail without this insert) not shown | no binding |  | no binding |
